Experimental findings from US20020065226A1 are described below.

Non-standard residues stand in square brackets, D forms with d. pGlu = O=C1CC[C@@H](C(=O)O)N1; azaGly = NNC(=O)O Some results are limits rather than exact numbers.

Experiment [1] concerns the target chorionic peptidase-1 (C-ase-1) (human). Briefly: competitive inhibition of C-ase-1 degradation of GnRH.
Experiment [2] concerns the target human placental GnRH receptor (human) (UniProt P30968). Description: competitive radioreceptor assay, human term placental GnRH receptors, 125I-Buserelin as competitor.
For experiment [3], the target named is chorionic peptidase-1 (C-ase-1) (human). Description: competitive inhibition of C-ase-1 degradation of GnRH (competitor).
For experiment [4] the target is unchanged. Briefly: C-ase-1 degradation assay, Lineweaver-Burke double reciprocal plot.
The target of experiment [5] is baboon ovarian enzymatic activity that degrades GnRH. Description: degradation assay with baboon ovarian homogenate, double reciprocal plot.
For experiment [6], the target named is chorionic peptidase-1 (C-ase-1) (human). Description: inhibition of C-ase-1 degradation of GnRH (competitor).
Experiment [7] has the same target. Briefly: competitive inhibition of C-ase-1 degradation of mammalian GnRH (competitor).
Experiment [8] deals with human placental GnRH receptor (human) (UniProt P30968). Briefly: competitive radioreceptor assay on human term placental membranes, radiolabeled Buserelin as competitor.
The target of experiment [9] is chorionic peptidase-1 (C-ase-1) (human). Description: cell-based or functional assay.
The target in experiment [10] is human placental GnRH receptor (human) (UniProt P30968). Description: competitive radioreceptor assay on human term placental membranes, radiolabeled Buserelin as competitor, double reciprocal plot.
For experiment [11] the target is unchanged. Description: homologous radioreceptor assay, placenta 2 membrane preparation, radiolabeled D-Arg(6)-chicken II GnRH-aza-Gly-amide as label.
For experiment [12] the target is unchanged. Briefly: radioreceptor assay on human term placental membranes, radiolabeled D-Arg(6)-chicken II GnRH-aza-Gly-amide as label.
For experiment [13], the target named is baboon ovarian GnRH receptor (baboon). Description: radioreceptor assay, baboon ovary membrane fraction, radiolabeled D-Arg(6)-chicken II GnRH-aza-Gly(10)-amide.
The target of experiment [14] is baboon endometrium GnRH receptor (baboon). Description: receptor binding, baboon endometrium (stroma and epithelium).
Experiment [15] deals with human placental GnRH receptor (human) (UniProt P30968). Briefly: homologous radioreceptor assay, average of three human term placental membrane preparations.
Experiment [16] deals with baboon ovarian GnRH receptor (baboon). Briefly: radioligand binding, baboon ovary membrane fraction.
Experiment [17] concerns the target human placental GnRH receptor (human) (UniProt P30968). Briefly: homologous radioreceptor assay on human term placental membranes, radiolabeled D-Arg-chicken II GnRH-aza-Gly-amide as label.

As a reminder, the Kd is the equilibrium constant for the complex coming apart. Low readings indicate a tighter complex, high ones a looser complex. As a reminder, the Ki is the dissociation constant of the complex between target and ligand, obtained from inhibition or displacement. Low values mean tighter binding, high ones weaker binding. Take chicken II GnRH-ethylamide (peptide): in experiment [1], the fold less active than GnRH was above 200 fold. Moreover, in experiment [2], the Kd is 30 nM and the fold activity over GnRH was found to be 33 fold. Further, the Ki in [3] came out at 130 nM.

Regarding “mammalian GnRH (from UniProt P01148 24-33) (peptide)”, the Ks in [4] and in [5] was 30 nM each time. The Ki in [3] was 30 nM.

Regarding “des-Gly10, D-Leu6-GnRH-ethylamide (from UniProt P01148 24-92) (peptide)”, the Ki in [3] came to 80 nM. That is a double-digit nanomolar value.

Take chicken I GnRH (peptide): in experiment [1], the fold less potent than GnRH was 3 fold and the fold more potent than salmon or chicken II GnRH stood at 2 fold. Moreover, the relative potency compared to GnRH (relative potency) in experiment [6] amounted to 0.6. In addition, in [3], the Ki turned out to be 80 nM.

Molecule chicken II GnRH (peptide) yielded a potency relative to mammalian GnRH in experiment [7] of 0.167 fold. Moreover, the relative potency compared to GnRH (relative potency) in [6] stood at 0.2. For the same molecule, the fold potency over mammalian GnRH in experiment [8] was 3 fold. In addition, the Ki in experiment [3] was determined as 200 nM.

For Antide (peptide), in experiment [1], the fold less potent than GnRH is 3 fold and the fold more potent than salmon or chicken II GnRH was determined as 2 fold. Further, the relative potency compared to GnRH (relative potency) in [6] was determined as 0.6. For the same molecule, the Ki in [3] turned out to be 120 nM.

As for “des-Gly10-GnRH-ethylamide (from UniProt P01148 24-92) (peptide)”, in experiment [3], the Ki is 70 nM.

With lamprey GnRH (peptide), the relative potency compared to GnRH (relative potency) in experiment [6] came out at 1.5. In experiment [3], this molecule gave a Ki of 20 nM.

As for “6D-Trp-GnRH-10 ethylamide (from UniProt P01148 24-32) (peptide)”, the inhibitory constant (Ki) in experiment [3] is 60 nM.

“Mammalian D-Trp (6) GnRH (from UniProt P01148 24-92) (peptide)”: the inhibitory constant (Ki) in experiment [3] is 20 nM.

“9OH-Pro-GnRH (from UniProt P01148 24-92) (peptide)”: in experiment [6], the relative potency compared to GnRH (relative potency) worked out at 1.5.

salmon GnRH (peptide) yielded a relative potency compared to GnRH (relative potency) in experiment [6] of 0.2. Moreover, the Ki in [3] was 300 nM.

Take “Buserelin (from UniProt P01148 24-32) (peptide)”: the rate of degradation by C-ase-1 (fold of the rate for mammalian GnRH) in [9] turned out to be 0.25. In [3], this molecule had a Ki of 110 nM.

“D-Arg (6)-salmon GnRH-aza-Gly (10)-amide (peptide)” displayed a Ki in [3] of 200 nM.

Consider [pGlu]HWSH[dR]WYP[azaGly]-NH2 (also: also used radioiodinated as label) [D-Arg(6)-chicken II GnRH-aza-Gly(10)-amide], for which the Kd in experiment [10] worked out at 175 nM; in experiment [11] it was 68 nM; in experiment [13], 10 nM; in [14], 60 nM; in experiment [15] it was 93 nM. For the same molecule, the fold affinity over mammalian GnRH worked out at 25 fold in experiment [12] and 60 fold in [8]. The same molecule returned a fold affinity over chicken II GnRH or Buserelin in experiment [8] of 2 fold. For the same molecule, the specific activity of binding, fold over placental membrane preparations in [16] lay within 50 to 100 fold. In [17], this molecule displayed a fold change of affinity against the assay with the Buserelin label of 2 fold.
